The text below walks through data of article PMC3253551 (Nature structural & molecular biology, 2011).

The target in test [1] is T1, 15N-13C-2D triply labeled MPER 27mer (HIV-1 (HxB2)).
T1 chain: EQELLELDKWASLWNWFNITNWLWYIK
The experiment in a line: NMR chemical shift perturbation and cross-saturation transfer.

Test [2] has as its target T2, MPER peptide QQEKNEQELLELDKWASLWNWFNI (binding analysis in membrane environment) (HIV-1 HXB2).
T2 chain: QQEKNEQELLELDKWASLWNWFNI
The experiment in a line: SPR. In general terms: Surface plasmon resonance follows binding to a sensor surface in real time, without labels.

Test [3] concerns the target wt MPER peptide of the alanine scan (HIV-1 HXB2, UniProt P04578). The experiment in a line: SPR.
The target of test [4] is trimeric ADA strain HIV-1 envelope protein GP160 (HIV-1 subtype B, isolate ADA, UniProt Q6TAN8, strain). The experiment in a line: flow cytometry on cells. A general note: A flow cytometer gives signals particle by particle.
For test [5], the target named is T3, full-length MPER segment (peptide containing the C-helical MPER region) (HIV-1 HXB2, UniProt P04578).
T3 chain: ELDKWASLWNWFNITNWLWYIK
The experiment in a line: SPR.

Broadly, the Kd is the constant that tells how readily two partners part at equilibrium. High values mean a looser complex, low ones a tighter complex.

B1: 2F5 Fab, wild type (Fab, V domains shown)
VH: RITLKESGPPLVKPTQTLTLTCSFSGFSLSDFGVGVGWIRQPPGKALEWLAIIYSDDDKRYSPSLNTRLTITKDTSKNQVVLVMTRVSPVDTATYFCAHRRGPTTLFGVPIARGPVNAMDVWGQGITVTISS
VL: ALQLTQSPSSLSASVGDRITITCRASQGVTSALAWYRQKPGSPPQLLIYDASSLESGVPSRFSGSGSGTEFTLTISTLRPEDFATYYCQQLHFYPHTFGGGTRVDVR
For the molecule B1, the binding result in test [1] is given as “binds”.

B2: 2F5m I100FS monoclonal antibody (antibody, V domains shown)
VH: RITLKESGPPLVKPTQTLTLTCSFSGFSLSDFGVGVGWIRQPPGKALEWLAIIYSDDDKRYSPSLNTRLTITKDTSKNQVVLVMTRVSPVDTATYFCAHRRGPTTLFGVPSARGPVNAMDVWGQGITVTISS
VL: ALQLTQSPSSLSASVGDRITITCRASQGVTSALAWYRQKPGSPPQLLIYDASSLESGVPSRFSGSGSGTEFTLTISTLRPEDFATYYCQQLHFYPHTFGGGTRVDVR
Consider B2, for which the Kd in test [2] was determined as 28 nM. The binding result in test [3] and in test [5] was “binds” throughout. Further, the “% of cells stained” value in test [4] is 20 % of cells stained.

B3: 2F5 broadly neutralizing monoclonal antibody, wild type (antibody, V domains shown)
VH: RITLKESGPPLVKPTQTLTLTCSFSGFSLSDFGVGVGWIRQPPGKALEWLAIIYSDDDKRYSPSLNTRLTITKDTSKNQVVLVMTRVSPVDTATYFCAHRRGPTTLFGVPIARGPVNAMDVWGQGITVTISS
VL: ALQLTQSPSSLSASVGDRITITCRASQGVTSALAWYRQKPGSPPQLLIYDASSLESGVPSRFSGSGSGTEFTLTISTLRPEDFATYYCQQLHFYPHTFGGGTRVDVR
For B3, the dissociation constant Kd in test [2] amounted to 3.1 nM. For the same molecule, the binding result in test [3] and in test [5] was “binds” throughout. In addition, the “% of cells stained” value in test [4] is 36 % of cells stained.

B4: 2F5m F100BS monoclonal antibody (antibody, V domains shown)
VH: RITLKESGPPLVKPTQTLTLTCSFSGFSLSDFGVGVGWIRQPPGKALEWLAIIYSDDDKRYSPSLNTRLTITKDTSKNQVVLVMTRVSPVDTATYFCAHRRGPTTLSGVPIARGPVNAMDVWGQGITVTISS
VL: ALQLTQSPSSLSASVGDRITITCRASQGVTSALAWYRQKPGSPPQLLIYDASSLESGVPSRFSGSGSGTEFTLTISTLRPEDFATYYCQQLHFYPHTFGGGTRVDVR
In test [2], B4 came in with a Kd of 97 nM. Also, the binding result in test [3] and in test [5] was “binds” in each case. The “% of cells stained” value in test [4] was 12 % of cells stained.

B5: 2F5m L100AS F100BS monoclonal antibody (antibody, V domains shown)
VH: RITLKESGPPLVKPTQTLTLTCSFSGFSLSDFGVGVGWIRQPPGKALEWLAIIYSDDDKRYSPSLNTRLTITKDTSKNQVVLVMTRVSPVDTATYFCAHRRGPTTSSGVPIARGPVNAMDVWGQGITVTISS
VL: ALQLTQSPSSLSASVGDRITITCRASQGVTSALAWYRQKPGSPPQLLIYDASSLESGVPSRFSGSGSGTEFTLTISTLRPEDFATYYCQQLHFYPHTFGGGTRVDVR
Take B5: the affinity in test [2], expressed as Kd, was 476 nM. Also, the “% of cells stained” value in test [4] was 3.9 % of cells stained. Besides, the binding result in test [5] is recorded as “binds”.
